Data published in patent US20150175687A1.

Key:
[1] = target: recombinant mature myostatin (human) (UniProt O14793)
[2] = target: recombinant mature myostatin (human) (UniProt O14793); experiment: BIAcore, myostatin immobilized

Chain of recombinant mature myostatin (human) (O14793 267-375): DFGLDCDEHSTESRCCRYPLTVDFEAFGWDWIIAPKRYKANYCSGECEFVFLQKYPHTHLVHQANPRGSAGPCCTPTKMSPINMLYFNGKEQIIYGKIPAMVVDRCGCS

IC50 (nM), myostatin-induced luciferase, C2C12 pMARE-luc [1]: 83 nM
Kd [2]: 7 nM
B1: recombinant human activin receptor IIB/Fc chimera (Fc fusion)
chain: SGRGEAETRECIYYNANWELERTNQSGLERCEGEQDKRLHCYASWRNSSGTIELVKKGCWLDDFNCYDRQECVATEENPQVYFCCCEGNFCNERFTHLPEAGGPEVTYEPPPTAPT
